The values below come from patent US20230365642A1 (published 2023).

The target in test [1] is T1, IL2R alpha (CD25) (UniProt P01589 22-213).
T1 chain: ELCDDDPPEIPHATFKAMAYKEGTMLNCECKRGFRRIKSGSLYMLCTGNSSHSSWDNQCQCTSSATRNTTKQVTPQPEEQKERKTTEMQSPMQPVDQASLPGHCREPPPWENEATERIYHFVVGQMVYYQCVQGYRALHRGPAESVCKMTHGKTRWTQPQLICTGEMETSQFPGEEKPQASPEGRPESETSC
As to the kind of experiment: BLI.

Test [2] has as its target T2, IL2R beta (CD122) (UniProt P14784 27-239).
T2 chain: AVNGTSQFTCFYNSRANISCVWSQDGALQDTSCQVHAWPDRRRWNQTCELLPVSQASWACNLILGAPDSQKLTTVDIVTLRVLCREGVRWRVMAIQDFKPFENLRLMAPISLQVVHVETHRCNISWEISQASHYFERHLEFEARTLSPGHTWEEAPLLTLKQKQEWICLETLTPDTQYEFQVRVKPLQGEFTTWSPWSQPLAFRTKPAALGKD
As to the kind of experiment: BLI. (BLI is a label-free optical method that tracks binding on a fibre tip over time.)

Test [3] has as its target MDNA109-Alb (2nd Gen.). In words: BLI.
The target in test [4] is MDNA109 (1st Gen.). As to the kind of experiment: BLI.
Test [5] concerns the target MDNA19 (3rd Gen.). In words: BLI.
In test [6] the target is T3, IL13Rα2 Protein, Human, Recombinant, His Tag (human, UniProt Q14627 27-343).
T3 chain: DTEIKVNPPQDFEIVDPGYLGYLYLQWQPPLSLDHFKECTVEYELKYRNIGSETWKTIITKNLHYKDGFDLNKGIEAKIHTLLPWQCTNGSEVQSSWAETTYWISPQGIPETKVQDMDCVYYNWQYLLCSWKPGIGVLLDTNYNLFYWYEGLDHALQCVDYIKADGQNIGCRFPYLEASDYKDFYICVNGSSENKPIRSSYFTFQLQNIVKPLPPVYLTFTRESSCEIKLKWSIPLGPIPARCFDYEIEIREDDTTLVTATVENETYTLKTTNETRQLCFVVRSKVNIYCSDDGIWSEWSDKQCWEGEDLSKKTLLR
In words: SPR; kinetic. For orientation: Surface plasmon resonance follows binding to a sensor surface in real time, without labels.

The target in test [7] is T4, IL13Rα Protein, Human, Recombinant, His Tag (human IL13Rα1) (human, UniProt P78552 22-343).
T4 chain: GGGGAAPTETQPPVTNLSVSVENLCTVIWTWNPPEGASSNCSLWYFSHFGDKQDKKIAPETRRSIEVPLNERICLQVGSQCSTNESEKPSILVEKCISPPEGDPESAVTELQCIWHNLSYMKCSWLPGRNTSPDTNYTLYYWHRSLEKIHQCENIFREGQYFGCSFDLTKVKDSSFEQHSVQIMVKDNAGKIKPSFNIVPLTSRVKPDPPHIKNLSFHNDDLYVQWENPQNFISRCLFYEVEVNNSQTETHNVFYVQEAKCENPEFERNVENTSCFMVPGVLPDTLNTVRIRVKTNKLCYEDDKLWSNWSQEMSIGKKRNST
As to the kind of experiment: SPR; equilibrium.

The target of test [8] is T4, IL13Rα Protein, Human, Recombinant, His …. As to the kind of experiment: SPR; kinetic.
Test [9] has as its target T3, IL13Rα2 Protein, Human, Recombinant, …. As to the kind of experiment: SPR; equilibrium.

Positions count from the first letter of the chain named.

B1: MDNA109-Fc (2nd Gen.) (protein)
chain: APTSSSTKKTQLQLEHLLLDLQMILNGINNYKNPKLTRMLTFKFYMPKKATELKHLQCLEEELKPLEEVLNLAQSKNFHFDPRDVVSNINVFVLELKGSETTFMCEYADETATIVEFLNRWITFCQSIISTLTGGGGSGGGGSGGGGSDKTHTCPPCPAPELLGGPSVFLFPPKPKDTLMISRTPEVTCVVVDVSHEDPEVKFNWYVDGVEVHNAKTKPREEYASTYRVVSVLTVLHQDWLNGKEYKCKVSNKALPAPIEKTISKAKGQPREPQVYTLPPSREEMTKNQVSLTCLVKGFYPSDIAVEWESNGQPENNYKTTPPVLDSDGSFFLYSKLTVDKSRWQQGNVFSCSVMHEALHNHYTQKSLSLSPGK
As for B1, the results for the dissociation constant Kd in test [1] and in test [2] were 14 nM and 2.7 nM, respectively.

B2: CD25 (IL-2Rα) (receptor)
chain: T1 chain
Take B2: the values for the Kd in test [3] and in test [4] were 56 nM and 26 nM, respectively.

B3: CD122 (IL-2Rβ) (receptor)
chain: T2 chain
B3: the Kd – broadly, the concentration at which binding is half-saturated – worked out at 3.5 nM in test [3], 1.8 nM in test [4] and 2.1 nM in test [5].

B4: C12 (protein)
chain: PGPVPPSTAHRELIEELVNITQNQKAPLCNGSMVWSINLTAGMYCAALESLINVSGCSAIEKTQRMLSGFCPHKVSAGQFSSLHVMDSRIEVAQFVKDLLNHLRALFKEGQFN
For B4, the dissociation constant Kd in test [6] was 0.053 nM; in test [7], 15000 nM.

B5: B4 (protein)
chain: B4 chain with H10L, R11S, V18I, M86K, D87G, R89M, N101Y, A105T, K108R
Turning to B5, the dissociation constant Kd in test [8] came out at 18 nM; in test [9], 108 nM.

B6: B2 (protein)
chain: B4 chain with H10L, V18I, M86T, D87G, R89K, N101Y, K108R
For B6, the results for the Kd in test [8] and in [6] were 0.275 nM and 1.5 nM, respectively.

B7: B6 (protein)
chain: B4 chain with H10T, V18I, M86R, D87G, R89K, N101Y, A105T, K108R
Regarding B7, the values for the equilibrium dissociation constant (Kd) in test [8] and in test [9] were 5.9 nM and 53 nM, respectively.

B8: C11 (protein)
chain: B4 chain with M86T, D87G, S88R, R89K, N101L, R104K, A105K
In the case of B8, the Kd amounted to 0.0001 nM in test [6] and 3600 nM in test [7].

B9: C7 (protein)
chain: B4 chain with H10L, R11S, I14M, M86R, R89K, R104K
As for B9, the results for the Kd in test [6] and in test [7] were 0.272 nM and 35000 nM, respectively.

B10: A8 (protein)
chain: B4 chain with H10I, V18I, M86R, D87S, N101H, A105T, K108R
B10: the Kd in test [8] worked out at 2.06 nM; in test [6] it was 0.263 nM.

B11: A5 (protein)
chain: B4 chain with H10L, R11I, V18I, M86K, D87G, R89K, N101H, F107M, K108R
Consider B11, for which the Kd in test [8] was determined as 2.94 nM; in test [9], 50 nM.

B12: D7 (protein)
chain: B4 chain with H10A, V18F, M86K, D87K, S88T, N101I, A105K
Take B12: the Kd stood at 0.003 nM in [6] and 4100 nM in test [7].

B13: C3 (protein)
chain: B4 chain with H10A, M86T, D87G, S88K
In the case of B13, the figures for the Kd in [6] and in [7] were 0.379 nM and 16000 nM, respectively.

B14: C4 (protein)
chain: B4 chain with H10V, M86R, S88T, R104K, A105E, K108T
Turning to B14, the results for the Kd in test [6] and in test [7] were 0.393 nM and 36000 nM, respectively.

B15: A6 (protein)
chain: B4 chain with H10I, V18L, D87K, R89K, N101H, K108R
B15: the Kd in test [8] turned out to be 1.9 nM; in test [6], 0.267 nM.

B16: C10 (protein)
chain: B4 chain with R11L, V18I, S88T, N101L, R104K, A105K
Consider B16, for which the Kd in test [6] was found to be 5 nM; in [7], 264 nM.

B17: C9 (protein)
chain: B4 chain with R11L, V18I, M86K, D87E, S88T, R104K, A105T
As to B17, the Kd in test [6] was determined as 0.259 nM; in test [7], 31000 nM.

B18: A11 (protein)
chain: B4 chain with H10V, V18I, M86R, D87S, R89K, N101F, A105T, K108R
Consider B18, for which the Kd in test [8] amounted to 0.084 nM; in [6] it was 0.391 nM.

B19: C2 (protein)
chain: B4 chain with H10D, R11I, V18I, M86K, D87K, S88T, N101L, R104K, A105K
As to B19, the dissociation constant Kd worked out at 0.025 nM in test [6] and 4000 nM in [7].

B20: A7 (protein)
chain: B4 chain with H10I, V18I, M86R, D87G, R89K, N101H, K108R
In the case of B20, the Kd was 1.18 nM in test [8] and 0.218 nM in test [6].
